Values quoted from earlier work in article PMC8979592.

Biological target: clathrin (UniProt Q00610)

Kd: 120 µM
Substance: clathrin (from UniProt Q00610)
